Assay results taken from patent US8404239B2, “Anti-Notch2 NRR antibodies” (Genentech, Inc., priority 2008, dated 2013).

How the values were obtained:
[1] = test system: thymus, CD4+/CD8+ double-positive T cells; test: In vivo thymus / T cell development in Balb/c mice; parameters: species or system mouse; conditions: 5 mg/kg four times every four days
Procedure: Balb/c mice were injected four times every four days with 5 mg/kg of α-gD isotype control, α-NRR1 or α-NRR2, and cells were harvested from the thymus or spleen on day 13, one day after the fourth dose. (A) Thymus weight measurements. Thymus weights (in mg) are expressed relative to total body weight (in g). Values represent the mean plus standard deviation for three mice per group. (B) Thymus cell count. (C) CD4 and CD8 FACS to identify CD4^+/CD8^+ double-positive T cells. Numbers represent the percentage of thymic cells in the double-negative, single-positive and double-positive populations. […] (D) CD21 and CD23 FACS to identify marginal zone B cells. Numbers represent the mean percentages ±standard deviation (from three animals) of cells within the MZB gate, which is boxed; p values are also noted; representative dot plots from one of the three animals in each group are graphed.
Splenocytes were isolated from the mice and were stained for FACS with B220-PerCP, CD23-PE and CD21-FITC (BD Biosciences) as previously described (Saito, et al., Immunity, Vol. 18, 675-685, May 2003).

[2] = Total body weight change in antibody-dosed mice; format: in vivo, mouse
Text: (A) Total body weight change (mean+/−standard deviation) vs. time. […] Arrows mark the days of dosing. (B) Immunohistochemical analyses of small intestines. […] In each row as indicated, staining is shown for haemotoxylin and eosin (H & E), Alcian Blue for mucin and to mark secretory goblet cells, lysozyme to mark Paneth cells, Ki-67 for proliferation and Hes1 as a Notch downstream target. See FIGS. 19 and 20 for analyses of the large intestine at day 7 and of the small intestine at day 2, respectively. Bar=40 μm. (C) Comparison of Notch1- versus Notch2-specific inhibition on small intestinal cell differentiation. Small intestines from the study described in (A) were prepared for Alcian Blue and Ki-67 one day after the final dosing with α-gD, α-NRR1 or α-NRR2, as indicated. Bar=50 μm.
(B) Immunohistochemical analyses of small intestines from mice treated as in (A), using Alcian Blue for mucin to mark secretory goblet cells.

B1: anti-NRR2: affinity matured form of Antibody D, phage library-derived human anti-Notch2 NRR monoclonal antibody (antibody, V domains shown)
VH: EVQLVESGGGLVQPGGSLRLSCAASGYTFSSYGMSWVRQAPGKGLEWVSYIYPYSGATYYADSVKGRFTISADTSKNTAYLQMNSLRAEDTAVYYCARHSGYYRISSAMDVWGQGTLVTVSA
VL: DIQMTQSPSSLSASVGDRVTITCRASQNIKRFLAWYQQKPGKAPKLLIYGASTRESGVPSRFSGSGSGTDFTLTISSLQPEDFATYYCQQYYRSPHTFGQGTKVEIKR
[1]; day 13
  total number of cells in the thymus: not
[1]; day 13, FACS
  percentage of thymic cells in the CD4+/CD8+ population: 80%
[2]; first experiment (FIG. 15A)
  total body weight change: weight gains
[2]; second experiment, 5 mg/kg (FIG. 24A)
  effect on weight: little or no effect
